Target: MBS complex (membrane-bound sulfane sulfur reductase), monomeric 13-subunit complex (Pyrococcus furiosus)
Test: cryo-EM structure; MBS purified in DDM, ~5 mg/ml; grids prepared under aerobic conditions; twofold symmetry applied; overall resolution 4.0 Å

stoichiometry N: 2
Substance: MBS complex (membrane-bound sulfane sulfur reductase), monomeric 13-subunit complex
